Assay results reported in patent publication US6617497B1, “Cytokinin oxidase” (The Curators of the University of Missouri, priority 1997, dated 2003).

Target: T1, cytokinin oxidase activity (Zea mays, UniProt Q9T0N8)
T1 construct: The exon fusion (containing ckx1 and including its putative signal peptide) was ligated into the Pml1/BsmB1 restriction sites of pPICZ-A; made in house; host or cells: Pichia pastoris X33 (transformant PPckx1, plasmid pROM24); activity measured in the culture supernatant
Assay: Cytokinin oxidase activity of ckx1 expressed in Pichia pastoris
Assay type: biochemical
Text: Two assays were used to screen purification steps for cytokinin oxidase activity. The first was the Schiff base formation assay measuring the production of dimethylallylaldehyde from iP, as described by Liberos-Minotta (1995), which was used up through the DEAE column step. A second assay, developed by the applicant, was used in the remaining purification steps. In this assay, the transfer of reducing equivalents from isopentenyladenine to dichlorophenolindophenol (DCPIP), catalyzed by ckx1, allows the observance of reactivity by measuring absorbance change at 590 nm. In a final volume of 250 μl, the assay contains: 100 mM Phosphate buffer, pH 7.0; 1.0 mM EDTA; 0.05 mM DCPIP; 0.1 mM iP; 100 μg/ml BSA; and the sample tested. After the addition of the enzyme, absorbance change is read at 590 nm for 10 minutes.
Removal of the right-most intron was accomplished by splicing by overlap extension (Horton et al., 1989) and for the left-most intron by ligation of suitable restriction fragments. The resulting intronless cassette was inserted into the Pichia expression vector pPICZ-A to give the expression construct pROM24 (FIG. 9). This construct was introduced into the requisite Pichia host and grown in the presence of methanol to induce ckx1 expression. Appropriate control Pichia lines (containing. the vector alone or a recombinant expressing human serum albumin) were grown in parallel. […]

T1 sequence (Q9T0N8 19-534): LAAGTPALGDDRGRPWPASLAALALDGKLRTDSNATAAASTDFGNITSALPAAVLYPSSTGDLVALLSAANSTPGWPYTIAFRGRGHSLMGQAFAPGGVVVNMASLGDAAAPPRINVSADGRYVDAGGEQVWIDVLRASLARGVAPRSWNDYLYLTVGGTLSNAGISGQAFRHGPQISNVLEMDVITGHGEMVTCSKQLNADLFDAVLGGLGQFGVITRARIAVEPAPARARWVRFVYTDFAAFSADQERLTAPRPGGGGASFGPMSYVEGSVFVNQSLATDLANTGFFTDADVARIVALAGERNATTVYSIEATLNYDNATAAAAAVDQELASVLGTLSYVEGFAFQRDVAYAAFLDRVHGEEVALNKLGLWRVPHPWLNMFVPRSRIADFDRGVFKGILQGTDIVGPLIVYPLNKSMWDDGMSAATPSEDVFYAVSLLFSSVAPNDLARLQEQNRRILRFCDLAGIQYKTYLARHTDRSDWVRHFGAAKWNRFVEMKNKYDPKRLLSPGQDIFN

- cytokinin oxidase activity in cell lysates (Pichia cell lysates, at any time during the growth curve): No cytokinin oxidase activity
B1: ckx1: purified plant cytokinin oxidizing enzyme from Zea mays (SEQ. ID NO. 1); here expressed recombinantly in Pichia pastoris (protein)
chain: MAVVYYLLLAGLIACSHALAAGTPALGDDRGRPWPASLAALALDGKLRTDSNATAAASTDFGNITSALPAAVLYPSSTGDLVALLSAANSTPGWPYTIAFRGRGHSLMGQAFAPGGVVVNMASLGDAAAPPGINVSADGRYVDAGGEQVWIDVLRASLARGVAPRSWNDYLYLTVGGTLSNAGISGQAFRHGPQISNVLEMDVITGHGEMVTCSKQLNADLFDAVLGGLGQFGVITRARIAVEPAPARARWVRFVYTDFAAFSADQERLTAPRPGGGGASFGPMSYVEGSVFVNQSLATDLANTGFFTDADVARIVALAGERNATTVYSIEATLNYDNATAAAAAVDQELASVLGTLSYVEGFAFQRDVAYAAFLDRVHGEEVALNKLGLWRVPHPWLNMFVPRSRIADFDRGVFKGILQGTDIVGPLIVYPLNKSMWDDGMSAATPSEDVFYAVSLLFSSVAPNDLARLQEQNRRILRFCDLAGIQYKTYLARHTDRSDWVRHFGAAKWNRFVEMKNKYDPKRLLSPGQDIFN
modifications: Zea mays
notes: here expressed recombinantly in Pichia pastoris
- cytokinin oxidase activity in growth medium (Pichia culture supernatant, methanol induction): high levels of cytokinin oxidase activity
